B1: EVSNGKWLLY (peptide)
peptide: EVSNGKWLLY
B2: LDSHIHAY (peptide)
peptide: LDSHIHAY
B3: YTERDGSAMVY (peptide)
peptide: YTERDGSAMVY
B4: LPSPTDSNFY (peptide)
peptide: LPSPTDSNFY
B5: STDIGALMY (peptide)
peptide: STDIGALMY
B6: ITAQNHGY (peptide)
peptide: ITAQNHGY
B7: ITFGERFEY (peptide)
peptide: ITFGERFEY
B8: LSLIDRLVLY (peptide)
peptide: LSLIDRLVLY
B9: LTDYLKNTY (peptide)
peptide: LTDYLKNTY
B10: RSDPVTLDV (peptide)
peptide: RSDPVTLDV
B11: RSDPVTLNV (peptide)
peptide: RSDPVTLNV
B12: TASEDVFQY (peptide)
peptide: TASEDVFQY
B13: EVLDSHIHAY (peptide)
peptide: EVLDSHIHAY
B14: LMKEVMEHY (peptide)
peptide: LMKEVMEHY
B15: YTHHLFIFY (peptide)
peptide: YTHHLFIFY
B16: LTDYINANY (peptide)
peptide: LTDYINANY
B17: LSAGSGPGQY (peptide)
peptide: LSAGSGPGQY
B18: GSTMVEHNY (peptide)
peptide: GSTMVEHNY
B19: YTDKLQHY (peptide)
peptide: YTDKLQHY
B20: VSNGKWLLY (peptide)
peptide: VSNGKWLLY
B21: SVTDLEMPHY (peptide)
peptide: SVTDLEMPHY
B22: TLEQVQLYY (peptide)
peptide: TLEQVQLYY
B23: STDEITTRY (peptide)
peptide: STDEITTRY
B24: KMMADYGIRK (peptide)
peptide: KMMADYGIRK
B25: SSASLAHMK (peptide)
peptide: SSASLAHMK
B26: AVLDLGSLLAK (peptide)
peptide: AVLDLGSLLAK
B27: SVKLQGTSK (peptide)
peptide: SVKLQGTSK
B28: GSYSALLAKK (peptide)
peptide: GSYSALLAKK
B29: VLGPNGLLK (peptide)
peptide: VLGPNGLLK
B30: KMAAWPFSR (peptide)
peptide: KMAAWPFSR
B31: RIYNGIGVSR (peptide)
peptide: RIYNGIGVSR
B32: ATWSASLKNK (peptide)
peptide: ATWSASLKNK
B33: ATAYGSTVSK (peptide)
peptide: ATAYGSTVSK
B34: QLYSKFLLK (peptide)
peptide: QLYSKFLLK
B35: ALDKPGKSK (peptide)
peptide: ALDKPGKSK
B36: RLFESSFHY (peptide)
peptide: RLFESSFHY
B37: MLLQQPLIY (peptide)
peptide: MLLQQPLIY
B38: SAFGYVFPK (peptide)
peptide: SAFGYVFPK
B39: QVPTFTIPK (peptide)
peptide: QVPTFTIPK
B40: STKSTSPPK (peptide)
peptide: STKSTSPPK
B41: ATALSLSNK (peptide)
peptide: ATALSLSNK
B42: KLFGTSGQK (peptide)
peptide: KLFGTSGQK
B43: KVLGPNGLLK (peptide)
peptide: KVLGPNGLLK
B44: TAYGSTVSK (peptide)
peptide: TAYGSTVSK
B45: TVASLHTEK (peptide)
peptide: TVASLHTEK
B46: STNNEGNLK (peptide)
peptide: STNNEGNLK
B47: GTESGTILK (peptide)
peptide: GTESGTILK
B48: KTPSGALHRK (peptide)
peptide: KTPSGALHRK
B49: ATYEGIQKK (peptide)
peptide: ATYEGIQKK
B50: KIKEHVRSK (peptide)
peptide: KIKEHVRSK
B51: KSFDRHFEK (peptide)
peptide: KSFDRHFEK
B52: KLGNNPVSK (peptide)
peptide: KLGNNPVSK
B53: KIIAPLVTR (peptide)
peptide: KIIAPLVTR
B54: RLSPNDQYK (peptide)
peptide: RLSPNDQYK
B55: STTKLYLAK (peptide)
peptide: STTKLYLAK
B56: AVATKFVNK (peptide)
peptide: AVATKFVNK
B57: SSYSRSSAVK (peptide)
peptide: SSYSRSSAVK
B58: GSRLGKYYVK (peptide)
peptide: GSRLGKYYVK
B59: STSHHLVSR (peptide)
peptide: STSHHLVSR
B60: KTYVGHPVKM (peptide)
peptide: KTYVGHPVKM

One test has as its target T1, HLA-A*01:01 (human).
T1 construct: Peptide-receptive MHC monomer made by UV cleavage of a UV-sensitive peptide
The test is described as follows: UV-ligand exchange, anti-b2m ELISA; exchange yield grade (+ >10%, ++ >20%, +++ >50, ++++ >75%). An excerpt:
(§1) Candidate peptides for T cell based therapies according to the present invention were further tested for their MHC binding capacity (affinity). The individual peptide-MHC complexes were produced by UV-ligand exchange, where a UV-sensitive peptide is cleaved upon UV-irradiation, and exchanged with the peptide of interest as analyzed. Only peptide candidates that can effectively bind and stabilize the peptide-receptive MHC molecules prevent dissociation of the MHC complexes. To determine the yield of the exchange reaction, an ELISA was performed based on the detection of the light chain (β2m) of stabilized MHC complexes. The assay was performed as generally described in Rodenko et al. (Rodenko et al., 2006).
(§2) 96 well MAXISorp plates (NUNC) were coated over night with 2 ug/ml streptavidin in PBS at room temperature, washed 4× and blocked for 1 h at 37° C. in 2% BSA containing blocking buffer. Refolded HLA-A*02:01/MLA-001 monomers served as standards, covering the range of 15-500 ng/ml. Peptide-MHC monomers of the UV-exchange reaction were diluted 100-fold in blocking buffer. Samples were incubated for 1 h at 37° C., washed four times, incubated with 2 ug/ml HRP conjugated anti-β2m for 1 h at 37° C., washed again and detected with TMB solution that is stopped with […]. Absorption was measured at 450 nm. Candidate peptides that show a high exchange yield (preferably higher than 50%, most preferred higher than 75%) are generally preferred for a generation and production of antibodies or fragments thereof, and/or T cell receptors or fragments thereof, as they show sufficient avidity to the MHC molecules and prevent dissociation of the MHC complexes.
Molecule B1 gave a peptide exchange yield of 50 to 75%. Still for that read-out and setting: the figure for B2 is 10 to 20%; for B3 it is 50 to 75%; for B4 it is 20 to 50%. Still for that read-out and setting: the same measure for B5: 50 to 75%; for B6: 20 to 50%.

Molecule B7 gave a peptide exchange yield of 50 to 75%.

As for B8, the peptide exchange yield was 20 to 50%. As to B9, the peptide exchange yield was 50 to 75%. In turn, B10 displayed a peptide exchange yield of 50 to 75%. Same read-out and setting: the figure for B11 is 50 to 75%; for B12 it is 10 to 20%. With B13, the peptide exchange yield was in the range of 10 to 20%. Same read-out and setting: the figure for B14 is 20 to 50%.

For B15, the peptide exchange yield was 10 to 20%. The same measure, in the same setting: the figure for B16 is 50 to 75%; for B17 it is 50 to 75%; for B18 it is 20 to 50%. Turning to B19, the peptide exchange yield fell in the range of 50 to 75%.

Turning to B20, the peptide exchange yield lay within 50 to 75%. Molecule B21 displayed a peptide exchange yield of 10 to 20%.

Take B22: the peptide exchange yield lay within 50 to 75%.

Molecule B23 gave a peptide exchange yield of 50 to 75%.

Another test deals with T2, HLA-A*03:01 (human).
T2 construct: Peptide-receptive MHC monomer made by UV cleavage of a UV-sensitive peptide
The description is as above.
Description: as §1, §2
The molecule B24 gave a peptide exchange yield of 50 to 75%. Still for that read-out and setting: the same measure for B25: 20 to 50%; for B26: 50 to 75%; for B27: 20 to 50%. In turn, B28 yielded a peptide exchange yield of 50 to 75%. Still for that read-out and setting: the same measure for B29: 20 to 50%. B30 registered a peptide exchange yield of 50 to 75%.

Molecule B31 had a peptide exchange yield of 50 to 75%. The molecule B32 yielded a peptide exchange yield of 50 to 75%. Still for that read-out and setting: the figure for B33 is 20 to 50%. As to B34, the peptide exchange yield lay within 50 to 75%. B35 displayed a peptide exchange yield of 20 to 50%.

Consider B36, for which the peptide exchange yield fell in the range of 50 to 75%. In the case of B37, the peptide exchange yield was 20 to 50%. For B38, the peptide exchange yield lay in the range of 50 to 75%.

B39 returned a peptide exchange yield of 20 to 50%. For B40, the peptide exchange yield lay in the range of 20 to 50%. B41: the peptide exchange yield lay in the range of 50 to 75%. Consider B42, for which the peptide exchange yield is 50 to 75%.

Regarding B43, the peptide exchange yield was in the range of 20 to 50%. Molecule B44 had a peptide exchange yield of 50 to 75%.

For B45, the peptide exchange yield fell in the range of 20 to 50%. The same measure, in the same setting: the same measure for B46: 20 to 50%; for B47: 20 to 50%. The molecule B48 displayed a peptide exchange yield of 20 to 50%. Consider B49, for which the peptide exchange yield was 20 to 50%. The same measure, in the same setting: the figure for B50 is 20 to 50%. Still for that read-out and setting: the figure for B51 is 50 to 75%; for B52 it is 20 to 50%; for B53 it is 20 to 50%.

B54 gave a peptide exchange yield of 20 to 50%. For the molecule B55, the peptide exchange yield is 20 to 50%. Still for that read-out and setting: the same measure for B56: 20 to 50%; for B57: 50 to 75%; for B58: 10 to 20%. Same read-out and setting: the same measure for B59: 20 to 50%.

Molecule B60 yielded a peptide exchange yield of 50 to 75%.
